Laboratory results as given in article PMC8013792, “Bacterial protein domains with a novel Ig‐like fold target human CEACAM receptors” (The EMBO Journal, 2021).

B1: IgSF (IgI3) domain of β protein, recombinant, biotinylated [modified: biotin, C-terminal] [Streptococcus agalactiae (GBS)] / recombinant CEACAM1 N-terminal domain, unglycosylated, 6xHis tagged [human] (parent)
chain 1: MAQLTTESMPFNVAEGKEVLLLVHNLPQQLFGYSWYKGERVDGNRQIVGYAIGTQQATPGPANSGRETIYPNASLLIQNVTQNDTGFYTLQVIKSDLVNEEATGQFHVY
chain 2: ANENNQQKIELTVSPENITVYEGEDVKFTVTAKSDSKTTLDFSDLLTKYNPSVSDRISTNYKTNTDNHKIAEITIKNLKLNESQTVTLKAKDDSGNVVEKTFTITVQKKEEKQLPSTGGS

Variants of: B1
Test: flow cytometry on coated dynabeads
Settings: with recombinant CEACAM1 N-terminal domain, parent: 390, read off a plot

Point of comparison: chain 2 S52A, response (Geometric MFI) 320. Against it:
- chain 2 L45A — higher, 350
